For this assay, the system named is IL2 signaling pathway (STAT5 phosphorylation) in mouse splenocytes. The experiment in a line: Flow cytometry detection of pSTAT5 expression in T cells and NK cells after IL2 stimulation, IL2RB/IL2RG/IL15/IL15RA four-gene humanized mice. The assay is classed as cell-based. Particulars: for pSTAT5 expression (CD4+ T cell) / pSTAT5 expression (CD8a+ cell) / pSTAT5 expression (NK1.1+ cell): splenocytes, 10 μg/mL IL2. On the procedure: The IL2 and IL15 signaling pathways in IL2RB/IL2RG double-gene humanized mice were detected by flow cytometry. Specifically, three 6-week old female C57BL/6 wild-type mice (+/+), three IL2RB/IL2RG double-gene humanized heterozygous mice (H/+; H/+), and three IL2RB/IL2RG double-gene humanized homozygous mice (H/H; H/H) were selected. […] No primary antibody was added to the corresponding secondary antibody control groups.
The IL2 and IL15 signaling pathways in IL2RB/IL2RG/IL15/IL15RA four-gene humanized mice were detected by flow cytometry. […] The cells were stained with: Brilliant Violet 421™ anti-mouse NK-1.1 Antibody, APC anti-mouse CD4 Antibody, and/or Alexa Fluor 700 anti-mouse CD8a Antibody, and then subjected to flow cytometry analysis.
(Flow cytometry measures light scatter and fluorescence of single cells or particles in a stream.)

Where [1] appears, read: IL2RB/IL2RG/IL15/IL15RA four-gene humanized homozygous mice (H/H).

B1: mIL2: Biotinylated Mouse IL-2 Protein, purchased from Kactus Biosystems (protein, UniProt P04351 21-169, looked up)
Interleukin-2: APTSSSTSSSTAEAQQQQQQQQQQQQHLEQLLMDLQELLSRMENYRNLKLPRMLTFKFYLPKQATELKDLQCLEDELGPLRHVLDLTQSKSFQLEDAENFISNIRVTVVKLKGSDNTFECQFDDESATVVDFLRRWIAFCQSIISTSPQ
modifications: biotinylated
notes: Biotinylated Mouse IL-2 Protein, purchased from Kactus Biosystems
On to B1, for which, under setting [1], the “pSTAT5 expression (CD4+ T cell)” value came out at 5.3%, the “pSTAT5 expression (CD8a+ cell)” value turned out to be 12.5% and the “pSTAT5 expression (NK1.1+ cell)” value is recorded as 70.7%. The “phosphorylated expression of STAT5 after stimulation (in words)” value (splenocytes of +/+ and four-gene humanized homozygous (H/H) mice, 10 μg/mL) is on record as “phosphorylated expression of STAT5 was detected”. Moreover, under “wild-type C57BL/6 mice (+/+)”, the “pSTAT5 expression (CD4+ T cell)” value was found to be 16.6%, the “pSTAT5 expression (CD8a+ cell)” value was 89.9% and the “pSTAT5 expression (NK1.1+ cell)” value worked out at 41.6%.

These data come from patent US20250302016A1, “GENETICALLY MODIFIED NON-HUMAN ANIMAL WITH HUMAN OR CHIMERIC GENES” (Biocytogen Pharmaceuticals (Beijing) Co., Ltd., priority 2022, published 2025).
